The results in this text go back to paper doi:10.1101/2024.11.08.622755.

The target in test [1] is Nonlabens marinus rhodopsin 3 (NM-R3), chloride ion-pumping rhodopsin clade (Nonlabens marinus S1-08T). As to the kind of experiment: cryo-EM structure.
In test [2] the target is Nonlabens marinus rhodopsin 1 (NM-R1), proteorhodopsin clade (Nonlabens marinus S1-08T). Description: cryo-EM structure.

Substance “Nonlabens marinus rhodopsin 3 (NM-R3), chloride ion-pumping rhodopsin clade (natural protein)” had a stoichiometry N in test [1] of 5.

In turn, “Nonlabens marinus rhodopsin 1 (NM-R1), proteorhodopsin clade (natural protein)” registered a stoichiometry N in test [2] of 5.

A word on the stoichiometry N: it is a count of units in the complex or per binding partner.
